From patent US20150361176A1 (GlaxoSmithKline, published 2015)
“And” between values parts separate entries of the source, which are not always exact repeats. Equal values may be shown once.

T1: recombinant mouse TGF-β RII/Fc chimera protein (mouse; human, UniProt Q62312-1 24-184)
T1 construct: Residue limits are printed only for the human receptor; also called mouse TGFbRII-Fc; mRII-Fc; not shown: Fc region; the assays speak of antigen fused to the human Fc
T1 sequence (looked up): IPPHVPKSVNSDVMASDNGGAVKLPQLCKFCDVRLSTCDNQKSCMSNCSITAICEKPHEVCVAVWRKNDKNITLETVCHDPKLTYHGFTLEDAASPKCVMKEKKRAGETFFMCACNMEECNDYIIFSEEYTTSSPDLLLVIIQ

T2: mouse TGF-βRII on MC3T3-E1 cells (mouse osteoblasts) (mouse, UniProt Q62312 24-567)
T2 sequence (looked up): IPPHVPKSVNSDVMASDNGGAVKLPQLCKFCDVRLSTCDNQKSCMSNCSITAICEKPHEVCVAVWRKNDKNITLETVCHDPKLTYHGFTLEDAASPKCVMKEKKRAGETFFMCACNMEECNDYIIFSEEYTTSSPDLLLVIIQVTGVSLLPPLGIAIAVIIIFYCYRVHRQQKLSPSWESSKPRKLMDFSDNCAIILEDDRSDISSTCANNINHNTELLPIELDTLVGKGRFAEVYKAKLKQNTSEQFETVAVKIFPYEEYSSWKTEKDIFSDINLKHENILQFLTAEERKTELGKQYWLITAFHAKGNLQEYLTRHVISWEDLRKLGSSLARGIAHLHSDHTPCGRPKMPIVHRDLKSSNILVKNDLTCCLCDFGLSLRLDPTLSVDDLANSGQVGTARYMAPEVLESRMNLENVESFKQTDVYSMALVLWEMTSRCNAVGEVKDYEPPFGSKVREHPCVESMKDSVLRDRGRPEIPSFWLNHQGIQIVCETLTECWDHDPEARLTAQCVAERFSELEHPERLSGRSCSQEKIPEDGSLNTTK


Experiments:
[1] = target: T3, recombinant human TGF-β RII/Fc chimera protein (human, UniProt P37173 24-159); assay: SPR Biacore T100, human TGFbRII-FC, 1:1 model
T3 construct: range 24-159; Made in HEK-F cells; Biotinylated where it was put on SA chips, otherwise captured by anti-human IgG; also called human TGFbRII/Fc; hRII-Fc; not shown: Fc region of human IgG1
Method: Triplet or doped libraries in separate CDR1, CDR2 and CDR3 pools were subjected to rounds of phage selection as described above against either biotinylated human TGF-β RII/Fc antigen over 4 rounds in concentrations of 10 nM, 1 nM, 100 pM and 20 pM respectively, or two rounds of selection using 20 pM followed by 2 pM antigen. Inserts from phage selections were cloned into the pDOM10 expression vector and supernatants with off rates improved over parent were selected for further study. Domain antibodies were expressed and purified their affinity and bioactivity against human TGF-β RII/Fc antigen tested on the BIACORE™ T100 and in the Cell sensor assay described above (data not shown).
BIACORE™ analysis was carried out using a capture surface on a CM4 chip. Anti-human IgG was used as the capturing agent and coupled to a CM4 biosensor chip by primary amine coupling. The Antigen molecule fused to the human Fc was captured on this immobilised surface to a level from 250 to 300 resonance units and defined concentrations of Domain antibodies diluted in running buffer were passed over this captured surface. An injection of buffer over the captured antigen surface was used for double referencing. […] All runs were carried out at 25° C. using HBS-EP buffer as running buffer. Data were generated using the BIACORE™ T100 and fitted to the 1:1 binding model inherent to the software.

[2] = target: T3, recombinant human TGF-β RII/Fc chimera …; assay: SPR Biacore, human TGFbRII-FC, 1:1 model (poor fit, ranking only)
[3] = target: T3, recombinant human TGF-β RII/Fc chimera …; assay: SPR Biacore
[4] = target: T1, recombinant mouse TGF-β RII/Fc chimera …; assay: SPR Biacore
[5] = target: T4, cynomolgus TGF-β RII/Fc (cynomolgus); assay: SPR Biacore
T4 construct: extracellular domain; also called Cyno TGFBRII; Cyno TGFbRII

[6] = target: human TGF-βRII on cells (SBE-bla HEK 293T cells; A549 cells) (human, UniProt P37173 23-567); assay: cell-based or functional assay
[7] = target: T2, mouse TGF-βRII on MC3T3-E1 cells (mouse …); assay: cell-based or functional assay

T3 sequence (P37173 24-159 limits assumed, stated change not applied): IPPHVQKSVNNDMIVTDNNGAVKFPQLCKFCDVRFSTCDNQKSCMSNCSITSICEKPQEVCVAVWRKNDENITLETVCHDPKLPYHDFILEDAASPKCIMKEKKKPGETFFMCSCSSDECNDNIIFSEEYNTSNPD
Chain of human TGF-βRII on cells (SBE-bla HEK 293T cells; A549 cells) (P37173 23-567): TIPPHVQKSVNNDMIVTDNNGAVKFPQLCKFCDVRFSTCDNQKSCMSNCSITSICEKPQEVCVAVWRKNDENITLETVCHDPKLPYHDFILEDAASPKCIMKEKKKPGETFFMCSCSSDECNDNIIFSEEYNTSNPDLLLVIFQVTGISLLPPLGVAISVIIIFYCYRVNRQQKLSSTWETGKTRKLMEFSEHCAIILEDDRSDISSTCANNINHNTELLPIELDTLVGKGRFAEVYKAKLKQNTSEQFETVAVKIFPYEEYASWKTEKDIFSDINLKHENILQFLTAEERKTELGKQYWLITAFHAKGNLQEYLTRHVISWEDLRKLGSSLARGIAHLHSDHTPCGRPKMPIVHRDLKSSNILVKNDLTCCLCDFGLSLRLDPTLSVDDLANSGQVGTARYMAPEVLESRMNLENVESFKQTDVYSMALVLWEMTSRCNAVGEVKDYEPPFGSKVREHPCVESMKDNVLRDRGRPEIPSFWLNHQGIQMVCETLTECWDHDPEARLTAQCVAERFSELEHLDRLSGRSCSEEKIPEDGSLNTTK

| Binder | Kd [1] | koff [1] | kon [1] | Kd [2] | koff [2] | kon [2] | Kd [3] | Kd [4] | Kd [5] | Human Cell sensor IC50 [6] | Mouse 3T3 Luciferase assay IC50 [7] |
| --- | --- | --- | --- | --- | --- | --- | --- | --- | --- | --- | --- |
| DOM23h-271-7 (VHH, human VH dAb; also called 271-7a; 271-7b) VHH: EVQLLESGGGLVQPGGSLRLSCAASGFTFTEYRMWWVRQAPGKGLEWVSAIEPIGNRTYYADSVKGRFTISRDNSKNTLYLQMNSLRAEDTAVYYCAKQIPGRKWTANSRFDYWGQGTLVTVSS | 13.8 nM and 18.4 nM | 0.0419 s⁻¹ and 0.0445 s⁻¹ | 3.04e+06 M⁻¹ s⁻¹ and 2.42e+06 M⁻¹ s⁻¹ | 9.49 nM | 0.051 s⁻¹ | 5.37e+06 M⁻¹ s⁻¹ |  |  |  |  |  |
| DOM23h-271-39 (VHH, human VH dAb; also called DOM23h-271-22 plus D61R K64D; RD) VHH: EVQLLESGGGLVQPGGSLRLSCAASGFTFTEYRMWWVRQAPGKGLEWVSAIEPIGNRTYYARSVDGRFTISRDNSKNTLYLQMNSLRAEDTAVYYCAKQMPGQKWMAKSRFDYWGQGTLVTVSS |  |  |  |  |  |  | 0.0149 nM | 1.78 nM | 0.024 nM | 1.17 nM | 11100 nM |
| DOM23h-271-40 (VHH, human VH dAb; also called DOM23h-271-22 plus D61R K64F; RF) VHH: EVQLLESGGGLVQPGGSLRLSCAASGFTFTEYRMWWVRQAPGKGLEWVSAIEPIGNRTYYARSVFGRFTISRDNSKNTLYLQMNSLRAEDTAVYYCAKQMPGQKWMAKSRFDYWGQGTLVTVSS |  |  |  |  |  |  | 0.00999 nM | 0.548 nM | 0.0112 nM | 0.53 nM | 1200 nM |
